This is an account of results in paper PMC10097714, “ALS-linked TDP-43 mutations interfere with the recruitment of RNA recognition motifs to G-quadruplex RNA”.

The target in data set [1] is His-tagged RRM segment of TDP-43 (101-261aa) (UniProt Q13148). Put plainly: GST pull-down (glutathione sepharose beads) with western blotting, band quantification. The following applies: three experiments, parent: est. 1.0, read off a plot. A general note: In western blotting, separated proteins are transferred to a membrane and probed.
Data set [2] concerns the target T1, TDP-43 WT full-length (human, UniProt Q13148 1-414). Put plainly: EMSA (agarose); lower affinity than PSD-95 G4; EMSA: 20 mM PIPES-NaOH pH 6.8, 150 mM NaCl, 0.8 mM MgCl2, 10% glycerol, 0.1 mg/ml BSA, 0.1 mg/ml poly-dI-dC, 25 C, gel 0.5x TBE pH 6.8; SPR: 20 mM PIPES pH 6.8, 12 mM KCl, 0.8 mM MgCl2, 150 mM NaCl, 0.05% Tween-20, 25 C; UV cross-linking: EMSA buffer without poly-dI-dC; pull-down: PIPES pH 6.8, 145 mM NaCl, 5.4 mM KCl, 0.8 mM MgCl2, 1.8 mM CaCl2, 0.05% Tween-20, 10% …. Conditions: protein: recombinant; tags: untagged; chain copies: 2; label: 5' Cy3, 3' Alexa Fluor 647; parallel G4.

Data set [3] concerns the target T2, GST-RRM (human, UniProt Q13148 101-261). The description is as above. The following applies: protein: recombinant; tags: GST; label: 5' Cy3, 3' Alexa Fluor 647; parallel G4.
For data set [4], the target named is T2, GST-RRM. Briefly: EMSA (agarose); EMSA: 20 mM PIPES-NaOH pH 6.8, 150 mM NaCl, 0.8 mM MgCl2, 10% glycerol, 0.1 mg/ml BSA, 0.1 mg/ml poly-dI-dC, 25 C, gel 0.5x TBE pH 6.8; SPR: 20 mM PIPES pH 6.8, 12 mM KCl, 0.8 mM MgCl2, 150 mM NaCl, 0.05% Tween-20, 25 C; UV cross-linking: EMSA buffer without poly-dI-dC; pull-down: PIPES pH 6.8, 145 mM NaCl, 5.4 mM KCl, 0.8 mM MgCl2, 1.8 mM CaCl2, 0.05% Tween-20, 10% glycerol, 4 C. Conditions: protein: recombinant; tags: GST; label: 3' Alexa Fluor 647. For orientation: A gel shift assay detects complexes by their altered migration in electrophoresis.

Data set [5] concerns the target T1, TDP-43 WT full-length. Briefly: EMSA (agarose); up to 10x protein; EMSA: 20 mM PIPES-NaOH pH 6.8, 150 mM NaCl, 0.8 mM MgCl2, 10% glycerol, 0.1 mg/ml BSA, 0.1 mg/ml poly-dI-dC, 25 C, gel 0.5x TBE pH 6.8; SPR: 20 mM PIPES pH 6.8, 12 mM KCl, 0.8 mM MgCl2, 150 mM NaCl, 0.05% Tween-20, 25 C; UV cross-linking: EMSA buffer without poly-dI-dC; pull-down: PIPES pH 6.8, 145 mM NaCl, 5.4 mM KCl, 0.8 mM MgCl2, 1.8 mM CaCl2, 0.05% Tween-20, 10% glycerol, 4 C. The following applies: protein: recombinant; tags: untagged; chain copies: 2; label: 3' Alexa Fluor 647.

Data set [6] has as its target T2, GST-RRM. Put plainly: EMSA (agarose); higher affinity than CaMKIIa G4; EMSA: 20 mM PIPES-NaOH pH 6.8, 150 mM NaCl, 0.8 mM MgCl2, 10% glycerol, 0.1 mg/ml BSA, 0.1 mg/ml poly-dI-dC, 25 C, gel 0.5x TBE pH 6.8; SPR: 20 mM PIPES pH 6.8, 12 mM KCl, 0.8 mM MgCl2, 150 mM NaCl, 0.05% Tween-20, 25 C; UV cross-linking: EMSA buffer without poly-dI-dC; pull-down: PIPES pH 6.8, 145 mM NaCl, 5.4 mM KCl, 0.8 mM MgCl2, 1.8 mM CaCl2, 0.05% Tween-20, 10% …. The following applies: protein: recombinant; tags: GST; label: 5' Cy3, 3' Alexa Fluor 647; parallel G4, A loop.

Data set [7] has as its target T1, TDP-43 WT full-length. Put plainly: EMSA (agarose); EMSA: 20 mM PIPES-NaOH pH 6.8, 150 mM NaCl, 0.8 mM MgCl2, 10% glycerol, 0.1 mg/ml BSA, 0.1 mg/ml poly-dI-dC, 25 C, gel 0.5x TBE pH 6.8; SPR: 20 mM PIPES pH 6.8, 12 mM KCl, 0.8 mM MgCl2, 150 mM NaCl, 0.05% Tween-20, 25 C; UV cross-linking: EMSA buffer without poly-dI-dC; pull-down: PIPES pH 6.8, 145 mM NaCl, 5.4 mM KCl, 0.8 mM MgCl2, 1.8 mM CaCl2, 0.05% Tween-20, 10% glycerol, 4 C. Conditions: protein: recombinant; tags: untagged; chain copies: 2; label: 5' Cy3, 3' Alexa Fluor 647; parallel G4, A loop.

On to “GST-fused wild-type glycine-rich (GR) segment of TDP-43 M337V”, for which the ratio to parent in data set [1] (+ CaMKIIα G4 RNA) stood at 0.26; in data set [1] (+ PSD-95 G4 RNA) it was 0.2.
The like results for “GST-fused wild-type glycine-rich (GR) segment of TDP-43 G287S” were, in that order, 0.52 and 0.31.
As to UGGGGGGGGCGGGUGGGA (structured_RNA) [Cy3-CaMKII-Ax647], the binding result in the data set with TDP-43 WT full-length [2] and with GST-RRM [3] was “binds” each time.
Regarding UGUGUGUGUGUGUGUGUGUG (ssRNA) [UG10-Ax647], the results for the binding result with GST-RRM [4] and with TDP-43 WT full-length [5] were “binds” and “no binding”, respectively.
Take GGGGAAAAGGGAGGGAUGGG (structured_RNA) [Cy3-PSD-Ax647]: the binding result in the data set with GST-RRM [6] and in the data set with TDP-43 WT full-length [7] was “binds” in each case.
